Data reported in US10138280B2, “Polypeptides targeting glycosylated MUC2 proteins, methods of synthesis, their nucleic acids and uses thereof” (INSTITUT PASTEUR, priority 2011, dated 2018).

Columns and labels:
mouse colonic mucus = assay: Mucus staining on fixed tissues, mouse colon; details: fixed tissue, 1 μg/mL
Description: FIGS. 11A-11C. Mucus staining using Cy5-MUB70 on fixed tissues. (FIG. 11A) Guinea pig colon, (FIG. 11B) rabbit ileum and (FIG. 11C) mouse colon were fixed in PFA 4%. Immunofluorescent staining was performed using Cy5-MUB70 (1 μg/mL) (blue). Actin is stained in red (Phall.-RRX), Muc2 is stained in green (α-Muc2). Observations were performed using a confocal microscope. Bar is 50 μm.
Ex vivo human colon samples were obtained from Dr. E. Labruyère (Institut Pasteur) and tissue processing was performed as described previously and stored in serum free RMPI media (surgical procedure is described herein). Human mucinous carcinoma formamide fixed samples were obtained from Dr. T. Lazure (Hôpitaux Universitaires Paris-Sud, Kremlin-Bicêtre) and Pr. I. Sobhani (Hôpital Henri Mondor, Créteil). Rabbit colon and ileum samples were collected on naïve New Zealand white rabbits weighting 2.5-3 kg and fixed in PFA 3%. Same procedure was applied on intestine samples collected on guinea pigs (Charles River) and C57/B6 mice (Janvier).
Following PFA 4% or Carnoy fixation, as indicated, samples were washed in PBS, incubated at 4° C. in PBS containing 12% sucrose for 90 min, then in PBS with 18% sucrose overnight, and frozen in OCT (Sakura) on dry ice. 7 μm sections were obtained using a cryostat CM-3050 (Leica). […]

[1] = test system: human neutrophil (PMN) granules; assay: Human neutrophil (PMN) granule staining; format: cell-based
Description: FIG. 14. Staining of individual neutrophiles (white blood cells) in human blood sample. Cy5-MUB70 was incubated on ethanol 100% fixed blood sample. […] (Details are provided on the Figure). […] In particular, granules staining is achieved.
FIG. 15. Staining of individual neutrophiles (white blood cells) purified from fresh human blood sample. Cy5-MUB70 was incubated on PFA 4% fixed neutrophiles (PFA treatment for 15 min, wash 3 times in PBS). Signal was detected as dots distributed in neutrophile cytoplasms. (Staining with Dapi 1:1000 and EB1C5 1:1000 in PBS+10% FCS+0.1% Saponin). […] In particular, granules staining is achieved.
FIG. 29. Identification of Muc2 in neutrophile granules using MUB70-Cy5. Human neutrophil (PMN) granule staining using Cy5-MUB70. PMN were purified from healthy donor blood samples and fixed in the presence of 4% PFA. Fluorescent staining of human colonic mucus was performed by the addition of 1 μg/mL of Cy5-MUB70 (Red) with Dapi (1:100) (Blue) and 1:200 anti-Muc2 antibody (Green). Image acquisition was performed using a fluorescent confocal microscope (see Methods).
FIG. 31. Identification of Muc2 in neutrophile granules. Human neutrophil (PMN) granule staining using Cy5-MUB40-1, Cy5-MUB40-2, Cy5-MUB40-3, Cy5-MUB40-4 peptides. Schematic description of the Cy5-conjugated peptides. PMN were purified from healthy donor blood samples and fixed in the presence of 4% PFA. Fluorescent staining of human colonic mucus was performed by the addition of 1 μg/mL of the Cy5-conjugated peptides (Green) with Dapi (1:100) (Blue) and Phalloidin-RRX (1:1000) (Red). Image acquisition was performed using a fluorescent confocal microscope (see Methods).
The invention has also proven to be useful for the monitoring of neutrophile degranulation events, in particular by using MUB70 and/or MUB40 polypeptides or polypeptides sharing identity with MUB70 and/or MUB40 polypeptides, or fragments thereof, for labelling neutrophile granule(s).

[2] = test system: mucus layer of differentiated HT-29 MTX human epithelial colonic cells; assay: Staining of living HT-29 MTX cells, epifluorescent microscope; format: cell-based; details: living differentiated HT-29 MTX; 1 μg/mL, 2 h, serum-free media
Description: FIGS. 3A-3B. Cy5-MUB70 colonic mucus binding property. (FIG. 3A) HT-29 MTX living cells were incubated for 2 h with Cy5-MUB70 in a serum-free media. The resulting fluorescent signal (red) was visualized at the surface of the cell layer using an epifluorescent microscope. Z-projection, performed using ImageJ software, allowed 3D localization of Cy5-MUB70 fluorescence signal in the mucus layer. Bar is 10 μm (FIG. 3B) MPE and SHG imaging of the binding of Cy5-MUB70 to the human colonic mucus. […] Human tissue autofluorescence is detected in the same red channel as Cy5.
For dot blot assay, goat α-MUC2 pAbs (sc-13312, Santa Cruz), mouse α-MUC5ac (Abcam), mouse α-MUC5b mAbs (Abcam), mouse α-MUC6 mAbs (sc-33668, Santa Cruz), mouse α-lactoferrin mAbs (sc-52048, Santa Cruz) and rabbit α-FCGBP pAbs (Sigma-Aldrich) antibodies were used at a 1:100 dilution. Corresponding HRP-Conjugated antibodies were used at a 1:1000 dilution. For staining living HT-29 MTX cells and on human colon ex vivo model, Cy5-MUB70 was incubated (1 μg/mL) in a serum starved culture medium (DMEM and RPMI respectively) for two hours at 37° C. prior observation.
Fluorescent labeled tissues and cells were observed using a widefield epifluorescent microscope (Zeiss Definite Focus), laser-scanning confocal microscope (Leica TCS SP5) or a two-photons confocal microscope (Zeiss LSM710), as indicated. […]

B1: Cy5-MUB70: Cy5-labelled MUB70 polypeptide, labelled via Cy5 maleimide on N-terminal cysteine (conjugate)
peptide: CVHVQYIDGETDQMLRQDDLDGYTDETIPYSTAEGIKKFEGDGYELFKDNFPAGEKFDNDDTNDQFYTVIF
colonic mucus staining (mouse colonic mucus): not stained | PMN granule staining ([1]; PMN purified from human blood, fixed in 4% PFA, 1 μg/mL): binding specifically a neutrophile granule component | neutrophile staining in human blood sample ([1]; ethanol 100% fixed blood sample): Signal was detected as diffused in neutrophile cytoplasm | mucus layer binding on living cells [2]: binding the mucus layer at the surface of the cells
